Source: US9187525B2, “Methods of treating ophthalmic diseases using NPR-B agonists” (Shire Orphan Therapies GmbH, dated 2015)
Numbered stars: 1 amine (or outer) side, 2 acyl side, 3 side chain; on linkers, the order of the positions; unused ones are H or OH. Square brackets hold non-standard residues; d marks the D form. Ends that are not written are not given here. * marks the point of attachment. Pmy = (S)-para-methoxy-phenylalanine, COc1ccc(C[C@H](N[*:1])C(=O)[*:2])cc1; Pro(trans-4-NH2) = O=C([C@@H]1C[C@@H](N[*:3])CN1[*:1])[*:2]; 1381 = (S)-3,3-dimethylbutan-2-amine, C[C@H](N*)C(C)(C)C; Sni = (S)-nipecotic acid, O=C([C@H]1CCCN([*:1])C1)[*:2]; Pro(trans-4-Ph) = O=C(O)[C@@H]1C[C@@H](c2ccccc2)CN1; NH((S)-tetralin-1-yl) = c1ccc2c(c1)CCC[C@@H]2N*; Phe(3,4-Cl2) = N[C@@H](Cc1ccc(Cl)c(Cl)c1)C(=O)O; 5121 = 1-propyl-butyl-amine, CCCC(CCC)N*; dGly(2-thienyl) = N[C@@H](C(=O)O)c1cccs1; Bmf = rac-2-amino-3-phenyl-butyric acid; Gly(2-thienyl) = N[C@H](C(=O)O)c1cccs1; Phe(4-F) = N[C@@H](Cc1ccc(F)cc1)C(=O)O; Butanoyl(4-cHex) = O=C(CCCC1CCCCC1)*; NMeR = CN[C@@H](CCCNC(=N)N)C(=O)O; Hyp = O=C(O)[C@@H]1C[C@@H](O)CN1; NMeI = CC[C@H](C)[C@H](NC)C(=O)O; NMeL = CN[C@@H](CC(C)C)C(=O)O; BB725 = not defined here; Octanoyl = CCCCCCCC(=O)*; 1860 = not defined here; 1906 = not defined here; 2906 = cyclobutyl-amine; Ac5c = NC1(C(=O)O)CCCC1; Api = NC1(C(=O)O)CCNCC1; Che = not defined here; Hexanoyl = CCCCCC(=O)*; Paf = not defined here; leu = not defined here; Occ = octanoic acid

T1: natriuretic peptide receptor-B (human)
T1 chain: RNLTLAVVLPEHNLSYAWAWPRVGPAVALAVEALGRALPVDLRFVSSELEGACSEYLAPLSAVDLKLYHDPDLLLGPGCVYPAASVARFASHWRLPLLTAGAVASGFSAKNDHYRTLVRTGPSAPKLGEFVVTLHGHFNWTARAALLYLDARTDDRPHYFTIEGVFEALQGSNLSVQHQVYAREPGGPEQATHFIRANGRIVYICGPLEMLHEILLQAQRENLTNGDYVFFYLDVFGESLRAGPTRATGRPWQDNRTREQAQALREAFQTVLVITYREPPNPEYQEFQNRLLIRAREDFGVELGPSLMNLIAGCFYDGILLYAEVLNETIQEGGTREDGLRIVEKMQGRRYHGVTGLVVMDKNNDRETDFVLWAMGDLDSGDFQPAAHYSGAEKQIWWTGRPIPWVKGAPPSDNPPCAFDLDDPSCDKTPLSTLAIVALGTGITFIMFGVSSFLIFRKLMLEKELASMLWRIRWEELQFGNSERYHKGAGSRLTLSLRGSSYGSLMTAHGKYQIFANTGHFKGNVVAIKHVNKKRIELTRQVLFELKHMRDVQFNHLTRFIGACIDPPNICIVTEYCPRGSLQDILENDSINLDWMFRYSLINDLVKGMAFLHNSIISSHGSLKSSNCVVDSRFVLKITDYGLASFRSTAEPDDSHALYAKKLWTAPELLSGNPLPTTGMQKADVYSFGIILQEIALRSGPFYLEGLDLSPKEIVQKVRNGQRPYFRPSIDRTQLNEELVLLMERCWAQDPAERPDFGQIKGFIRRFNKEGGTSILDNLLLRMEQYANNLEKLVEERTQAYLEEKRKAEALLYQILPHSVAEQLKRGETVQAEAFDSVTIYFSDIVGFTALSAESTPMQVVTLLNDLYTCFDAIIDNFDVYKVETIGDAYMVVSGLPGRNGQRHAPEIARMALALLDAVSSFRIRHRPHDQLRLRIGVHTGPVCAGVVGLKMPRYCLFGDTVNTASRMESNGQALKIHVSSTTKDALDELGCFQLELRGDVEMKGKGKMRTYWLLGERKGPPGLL

B1: JAL-1496 (peptide)
peptide: [Occ][Sni][Phe(3,4-Cl2)]LL[Hyp][NMeL]DRI-NH2
modifications: not fully specified (residue 4); printed as Occ-Sni-Eaa-leu-Leu-Hyp-Nml-Asp-Arg-Ile-NH2
B2: JAL-0657 (peptide)
peptide: XXFGLKLDRI
HELM: PEPTIDE1{[CCCCCC(=O)[*:2]].[O=C([C@H]1CCC[C@@H](N[*:1])C1)[*:2]].F.G.L.K.L.D.R.I.[am]}$$$$V2.0
SMILES: CCCCCC(=O)N[C@@H]1CCC[C@H](C(=O)N[C@@H](Cc2ccccc2)C(=O)NCC(=O)N[C@@H](CC(C)C)C(=O)N[C@@H](CCCCN)C(=O)N[C@@H](CC(C)C)C(=O)N[C@@H](CC(=O)O)C(=O)N[C@@H](CCCNC(=N)N)C(=O)N[C@H](C(N)=O)[C@@H](C)CC)C1
B3: JAL-1556 (peptide)
peptide: [Occ][dA]F[dL]L[Hyp][NMeL][BB725]RI-NH2
modifications: reading uncertain; also: printed as Occ-ala-Phe-leu-Leu-Hyp-Nml-(BB725)-Arg-Ile-NH2
B4: JAL-1506 (peptide)
peptide: [Occ][Sni]FLL[Hyp][NMeL]DP[NH((S)-tetralin-1-yl)]
modifications: not fully specified (residue 4); printed as Occ-Sni-Phe-leu-Leu-Hyp-Nml-Asp-Pro-2118
B5: JAL-1494 (peptide)
peptide: Octanoyl-[Sni]X[leu]L[Hyp][NMeL]DRI-NH2
modifications: not fully specified (some residues); printed as Occ-Sni-Pmf-leu-Leu-Hyp-Nml-Asp-Arg-Ile-NH2
B6: JAL-1510 (peptide)
peptide: [Occ][Sni]FLL[Hyp][NMeL]DP[1860]
modifications: not fully specified (residue 4); printed as Occ-Sni-Phe-leu-Leu-Hyp-Nml-Asp-Pro-1860; reading uncertain
B7: JAL-1493 (peptide)
peptide: Octanoyl-[Sni]X[leu]L[Hyp][NMeL]DRI-NH2
modifications: not fully specified (some residues); printed as Occ-Sni-Pcf-leu-Leu-Hyp-Nml-Asp-Arg-Ile-NH2
B8: JAL-1508 (peptide)
peptide: [Occ][Sni]FLL[Hyp][NMeL]DP[2906]
modifications: not fully specified (residue 4); printed as Occ-Sni-Phe-leu-Leu-Hyp-Nml-Asp-Pro-2906
B9: JAL-1511 (peptide)
peptide: [Occ][Sni]FLL[Hyp][NMeL]DP[1906]
modifications: not fully specified (residue 4); printed as Occ-Sni-Phe-leu-Leu-Hyp-Nml-Asp-Pro-1906; reading uncertain
B10: JAL-1509 (peptide)
peptide: [Occ][Sni]FLL[Hyp][NMeL]DP[1381]
modifications: not fully specified (residue 4); printed as Occ-Sni-Phe-leu-Leu-Hyp-Nml-Asp-Pro-1381
B11: JAL-1509_02 (peptide)
peptide: [Occ][Sni]FLL[Hyp][NMeL]DP[1381]
modifications: not fully specified (residue 4); printed as Occ-Sni-Phe-leu-Leu-Hyp-Nml-Asp-Pro-1381
B12: JAL-1513 (peptide)
peptide: [Occ][Sni]FLL[Hyp][NMeL]DP[5121]
modifications: not fully specified (residue 4); printed as Occ-Sni-Phe-leu-Leu-Hyp-Nml-Asp-Pro-5121
B13: JAL-1512_02 (peptide)
peptide: [Occ][Sni]FLL[Hyp][NMeL]DP[Che]
modifications: not fully specified (residue 4); printed as Occ-Sni-Phe-leu-Leu-Hyp-Nml-Asp-Pro-Che; reading uncertain

Target: T1, natriuretic peptide receptor-B
Experiment: cell-based or functional assay

EC50 group, cGMP in GTM-3 cells [µM] | Binder
≤ 5 | [Occ][Sni]FGL[Pro(trans-4-NH2)][NMeL]DPI-NH2 [JAL-1560]
≤ 1 | [Occ][Sni]F[Api]L[Pro(trans-4-NH2)][NMeL]DPI-NH2 [JAL-1561]
≤ 1 | B1
≤ 15 | B2
≤ 1 | B3
≤ 1 | [Occ][dA]F[dL]L[Hyp][NMeL][dGly(2-thienyl)]RI-NH2 [JAL-1558]
≤ 5 | Octanoyl-[Sni][Pmy][leu]L[Hyp][NMeL]DRI-NH2 (reading uncertain; also: printed as Occ-Sni-Pmy-leu-Leu-Hyp-Nml-Asp-Arg-Ile-) [JAL-1488]
≤ 5 | [Occ][Sni]FLL[Hyp][NMeL]DRI-NH2 [JAL-1554]
≤ 5 | B4
≤ 1 | B5
≤ 1 | B6
≤ 15 | Octanoyl-[Sni]Y[leu]L[Hyp][NMeL]DRI-NH2 (reading uncertain; also: printed as Occ-Sni-Tyr-leu-Leu-Hyp-Nml-Asp-Arg-Ile-NH2) [JAL-1489]
≤ 1 | [Occ][Sni]F[dL]L[Pro(trans-4-NH2)][NMeL]DPI-NH2 [JAL-1559]
≤ 5 | Octanoyl-[Sni][Paf][leu]L[Hyp][NMeL]DRI-NH2 (reading uncertain; also: printed as Occ-Sni-Paf-leu-Leu-Hyp-Nml-Asp-Arg-Ile-NH2) [JAL-1492]
≤ 1 | B7
≤ 15 | [Occ][Sni]FAL[Hyp][NMeL]DRI-NH2 [JAL-1553]

EC50 group, cGMP in GTM-3 cells [µM] | Binder
≤ 15 | [Occ][dA]F[dL]L[Hyp][NMeL][Gly(2-thienyl)]RI-NH2 [JAL-1557]
≤ 15 | Hexanoyl-[dA][dA]FGLKLDR[Ac5c]-NH2 [JAL-0692]
≤ 1 | [Occ][Sni]F[Api]L[Hyp][NMeL]DRI-NH2 [JAL-1555]
≤ 1 | Octanoyl-[Sni][Phe(4-F)][leu]L[Hyp][NMeL]DRI-NH2 (reading uncertain; also: printed as Occ-Sni-Pff-leu-Leu-Hyp-Nml-Asp-Arg-Ile-NH2) [JAL-1487]
≤ 5 | [Occ][Sni]F[dL]L[Hyp][NMeL]D[NMeR]I-NH2 [JAL-1570]
≤ 1 | [Occ][Sni]F[dL]L[Pro(trans-4-NH2)][NMeL]DP[Che] (reading uncertain; also: printed as Occ-Sni-Phe-leu-Leu-Tap-Nml-Asp-Pro-Che) [JAL-1568]
≤ 15 | B8
≤ 15 | {Butanoyl(4-cHex)}-[dA][dA]FGLKLDRI-NH2 [JAL-0693]
≤ 5 | B9
≤ 5 | Octanoyl-[Sni][Pro(trans-4-Ph)][leu]L[Hyp][NMeL]DRI-NH2 (reading uncertain; also: printed as Occ-Sni-Eay-leu-Leu-Hyp-Nml-Asp-Arg-Ile-NH2) [JAL-1491]
≤ 5 | B10
≤ 15 | Octanoyl-[Sni][Bmf][leu]L[Hyp][NMeL]DRI-NH2 (reading uncertain; also: printed as Occ-Sni-Bmf-leu-Leu-Hyp-Nml-Asp-Arg-Ile-) [JAL-1490]
≤ 1 | [Occ][Sni]F[dL]L[Hyp][NMeL]DR[NMeI]-NH2 [JAL-1569]
≤ 5 | B11
≤ 15 | B12
≤ 1 | B13
